Experimental data as given in the supplement of paper PMC10567573.
± gives the standard deviation.

Assay: protein stability index of a GFP-peptide fusion (GPS, HEK-293T) (PSI 1-6); higher = more stable
Details: c terminus: a fixed tail appended
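Note: 24-mer peptide tiles fused after GFP, lentivirally expressed, FACS-sorted into six equal bins by GFP/DsRed ratio, decoded by Illumina sequencing, PSI is the read-weighted mean bin number.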

Sequence | protein stability index (treatment: DMSO) | protein stability index (treatment: MLN4924 1 uM, 8 h)
REIARYLLEQGAQVNRRSAKGNTA [FEM1A] | 3.29 ± 0.12 | 3.54 ± 0.31
GRSGPGCAVLDDSIYLVGGYSWSM [KLHL14] | 2.7 ± 0.39 | 2.38 ± 0.63
RYDPQTNEWRMVASMSKRRCGVGV [KLHL20] | 2.71 ± 0.16 | 2.75 ± 0.3
ASSASEPQGLFVEALSVPLSLCVS [CLPTM1] | 2.31 ± 0.2 | 2.25 ± 0.36
YTDYVATRWYRAPELLVGDTQYGS [CDKL4] | 2.56 ± 0.7 | 2.38 ± 0.34
RPQPRGLLGWGYYLIMLPFRFTYY [FAF2] | 3.86 ± 0.18 | 3.48 ± 0.077
KVLEALKLKGAEVTYMNMTAYNKG [PLD5] | 2.18 ± 0.6 | 2.42 ± 0.39
EPAARISPLGALQHGFFRRTADEA [DYRK1B] | 4.08 ± 0.13 | 3.89 ± 0.22
HQSLSLASSPKGTIENILDNDPRD [CDC25A] | 5.3 ± 0.2 | 5.22 ± 0.18
QHNLCRKCASDIFQASNPYLPTRG [TRIM55] | 2.29 ± 0.26 | 2.45 ± 0.22
NSDLNNLLFCCQCVDVVFYNPDLK [RHOBTB3] | 2.28 ± 0.99 | 2.59 ± 0.6
HGNEVLGRELLLLLVQFVCQEYLA [CPXM2] | 3.11 ± 1.1 | 2.98 ± 1.2
FGIGSEILKNLSQVAMRCRCSSMH [SAT1] | 2.56 ± 0.58 | 2.45 ± 0.48
PSATRAKPGPQDTVERPFYDLWAS [NOP53] | 3.08 ± 0.37 | 3.24 ± 0.37
LTADTKEVTASQEARGLRLSDLED [IRX6] | 5.37 ± 0.32 | 5.35 ± 0.12
IEDSTGLNRPGPAPLSSRKHVLYV [TCF25] | 2.27 ± 0.45 | 2.35 ± 0.31
LEPLSLPESPGGTTTLEGSPSVPC [ZNF277] | 5.22 ± 0.16 | 5.3 ± 0.14
LLEPEVADGGGAPPQGGCGGGGCD [KCNA3] | 5.31 ± 0.22 | 5.35 ± 0.11

Sequence | protein stability index (treatment: DMSO) | protein stability index (treatment: MLN4924 1 uM, 8 h)
AASPQDLAGGYTSSLACHRALQDA [MNAT1] | 4.21 ± 0.25 | 4.24 ± 0.37
FIPAKTGKDVATQILEGELFDFDL [RSPH3] | 2.7 ± 0.48 | 2.89 ± 0.56
GRGLLRWDSFSAWLHCVCVVGFDL [DENND6A] | 2.77 ± 0.58 | 2.83 ± 0.69
KELIIFRLVAPTEGSLEWDILEVK [WDR41] | 2.22 ± 0.24 | 2.21 ± 0.4
QSFIIPLERYVASLMPLQKSISPW [DENND6A] | 2.25 ± 0.04 | 2.46 ± 0.56
LCATDFKFAMYPPSMIATGSVGAA [CCND2] | 2.38 ± 0.23 | 2.38 ± 0.29
EAGIKVHDVRLNGSAAGHVLVKDN [TENT5C] | 4.42 ± 0.17 | 4.61 ± 0.15
ETNRLGRLINHSKCGNCQTKLHDI [KMT5A] | 2.57 ± 0.36 | 2.75 ± 0.23
FLLSQQTDLPECEQSSARQKASLL [TCF25] | 3.78 ± 0.52 | 3.83 ± 0.12
SNCLGIRDFAETHNCVDLMQAAEV [KLHL12] | 4.05 ± 0.64 | 3.68 ± 0.59
RVRFGQQKRYQDWFQRQYLSTPDS [INTS3] | 2.85 ± 0.23 | 3.07 ± 0.14
EQGKPVIPAAVLAGFTGSGPIQLW [ETS2] | 2.55 ± 0.43 | 2.54 ± 0.16
PVLRPMDLMVEATPRRVFANAHTY [PPP2R2B] | 2.68 ± 0.17 | 2.82 ± 0.075
YKGELFDKTPVLLTDYPVDLDEIA [MYORG] | 3.73 ± 0.28 | 3.75 ± 0.16
GANINAFDKKDRRALHWAAYMGHL [ANKRD44] | 2.3 ± 0.21 | 2.36 ± 0.31
KMNDSEGMDPERLKAFNMFVRLFV [NOL4L] | 2.08 ± 0.11 | 2.23 ± 0.26
AWVANFERPRMNANSLLASPTGLS [CRY1] | 2.64 ± 0.5 | 2.97 ± 0.37
ELERQRRLLGSVQQDLERSLQDAS [PBXIP1] | 4.62 ± 0.26 | 4.46 ± 0.28
